Tests used:
[1] = test system: GST-UtroUp (six zinc finger artificial transcription factor) (synthetic construct); assay: EMSA; conditions: 50 uM ZnCl2; 1-90 nM protein; mean of five experiments; EMSA: 20 mM Hepes pH 7.5, 0.5 mM DTT, 100 mM NaCl, 50 uM ZnCl2, 50 ug/ml BSA, 100 ng poly(dI-dC), 0.05% NP40, 5% glycerol; temperature not stated
[2] = test system: GST-Jazz (three zinc finger artificial transcription factor) (synthetic construct); assay: EMSA; conditions: 50 uM ZnCl2; 5-96 nM protein; at 12 nM shift weaker than GST-UtroUp (Fig. 2C); EMSA: 20 mM Hepes pH 7.5, 0.5 mM DTT, 100 mM NaCl, 50 uM ZnCl2, 50 ug/ml BSA, 100 ng poly(dI-dC), 0.05% NP40, 5% glycerol; temperature not stated

With “ATTAAGCCGGGCTGCTGCGGGCTGGGAGTATGATCC (double strand) [WT UtroUp (UtroUp-Jazz) DNA target]” the Kd [1] was 3.5 nM and the Kd [2] was 32 nM.
